From article PMC12319226 (Frontiers in Bioinformatics, 2025) come the findings set out here.

What all share (test): BLI
What all share (details): both partners purified

For one experiment, the target named is T1, fHbp m002414 (Neisseria meningitidis fHbp v3.28, …, chimera).
T1 chain: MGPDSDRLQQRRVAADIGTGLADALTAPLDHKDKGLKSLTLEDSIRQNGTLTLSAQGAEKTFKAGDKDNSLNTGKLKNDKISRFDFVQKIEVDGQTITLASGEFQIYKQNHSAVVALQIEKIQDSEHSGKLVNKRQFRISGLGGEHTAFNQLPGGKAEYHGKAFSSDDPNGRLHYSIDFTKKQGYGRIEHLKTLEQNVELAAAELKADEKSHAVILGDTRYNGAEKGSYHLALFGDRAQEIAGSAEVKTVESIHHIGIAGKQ

Another experiment addresses T2, fHbp m001929 (Neisseria meningitidis; fHbp …, chimera).
T2 chain: T1 chain with N222G, S252A

Another experiment deals with T3, fHbp m002389 (Neisseria meningitidis; fHbp …, chimera).
T3 chain: T1 chain with T249S, E251N, S252G

For the next experiment, the target named is T4, fHbp m002416 (Neisseria meningitidis, designed fHbp …, chimera).
T4 construct: also called fHbp 2,416; Round 2 best mutant
T4 chain: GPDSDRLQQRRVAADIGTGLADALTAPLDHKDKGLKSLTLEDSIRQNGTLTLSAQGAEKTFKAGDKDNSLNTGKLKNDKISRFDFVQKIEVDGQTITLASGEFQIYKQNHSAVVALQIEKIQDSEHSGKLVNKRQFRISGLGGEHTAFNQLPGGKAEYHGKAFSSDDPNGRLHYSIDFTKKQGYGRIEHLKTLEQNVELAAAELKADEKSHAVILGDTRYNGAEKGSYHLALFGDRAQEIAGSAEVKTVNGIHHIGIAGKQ

The target of a further experiment is T5, fHbp m001932 (Neisseria meningitidis; fHbp …, chimera).
T5 chain: T1 chain with N222G, E251N, S252A

The target of a further experiment is T6, fHbp m002256 (Neisseria meningitidis, engineered fHbp …, chimera).
T6 chain: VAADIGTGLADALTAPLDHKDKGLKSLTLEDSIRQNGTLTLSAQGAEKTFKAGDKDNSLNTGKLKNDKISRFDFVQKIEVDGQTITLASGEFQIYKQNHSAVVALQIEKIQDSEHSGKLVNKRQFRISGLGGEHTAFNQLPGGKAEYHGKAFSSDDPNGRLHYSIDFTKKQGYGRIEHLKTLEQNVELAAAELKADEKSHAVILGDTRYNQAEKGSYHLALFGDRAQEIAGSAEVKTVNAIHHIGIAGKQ

The target of a further experiment is T7, fHbp m001691 (Neisseria meningitidis; fHbp …, point mutant).
T7 chain: T1 chain with Y221L, E251V, S252G

A further experiment has as its target T8, fHbp m001927 (Neisseria meningitidis; fHbp …, chimera).
T8 chain: T1 chain with N222G, S252G

A further experiment addresses T9, fHbp m002420 (Neisseria meningitidis, designed fHbp …, chimera).
T9 chain: T4 chain with N250V, G251S

Numbering of substitutions follows the chain as printed. “And” between values parts separate entries of the source, which are not always exact repeats. Identical values can stand only once.

B1: chimeric antibody h12C1 (antibody, V domains shown)
VH: QVQLQESGPELVKPGASVKISCKASGYSFSDYNMSWVKQSNGKSLEWIGIIDPKYGTINYNQKFKGKATLTVDQASSTAYMQLNSLTSEDSAVYYCVRDYYGSSYFDYWGQGTTLTVSS
VL: DIVLTQSPSSIYASLGERVTLTCKASQDIHNYLNWFQQKPGKSPKTLIYRANRLVDGVPSRFSGGGSGQDYSLTISSLEFEDIGIYYCLQYDEFPPTFGGGTRLEIK
notes: also called humanized 12C1; source: Expi293, purified (MabSelect SuRe, SEC); copies: 2 + 2
For the molecule B1, the Kd (commonly the constant that tells how readily two partners part at equilibrium) turned out to be 66.4 nM with fHbp m002414; 45.9 nM with fHbp m001929; 1.16 nM with fHbp m002389; 35.2 nM with fHbp m001932; 43.6 nM with fHbp m002256; 34 nM with fHbp m001691. Also, the Kd with fHbp m001927 was 0.38 nM; with fHbp m002420, 70.4 nM. Further, the koff (commonly the first-order rate constant of dissociation) in the experiment with fHbp m002414 is 0.00858 s⁻¹; with fHbp m001929, 0.00802 s⁻¹; with fHbp m002389, 0.000257 s⁻¹; with fHbp m002416, 5.89e-05 s⁻¹; in the experiment with fHbp m001932 it was 0.0057 s⁻¹; with fHbp m002256, 0.0102 s⁻¹. In addition, the figures for the koff in the experiment with fHbp m001691, with fHbp m001927 and with fHbp m002420 were 0.00857 s⁻¹, 7.94e-05 s⁻¹ and 0.02143 ± 0.00013 s⁻¹, respectively. Further, the kon (in general, a measure of how fast the partners come together) worked out at 129000 ± 5630 M⁻¹ s⁻¹ in the experiment with fHbp m002414; 175000 ± 4560 M⁻¹ s⁻¹ with fHbp m001929; 220700 ± 1060 M⁻¹ s⁻¹ with fHbp m002389; 201100 ± 1150 M⁻¹ s⁻¹ with fHbp m002416; 161900 ± 1160 M⁻¹ s⁻¹ in the experiment with fHbp m001932; 235000 ± 5060 M⁻¹ s⁻¹ with fHbp m002256. The kon in the experiment with fHbp m001691 was 252000 ± 2680 M⁻¹ s⁻¹; with fHbp m001927, 209200 ± 1710 M⁻¹ s⁻¹; with fHbp m002420, 304000 ± 6160 M⁻¹ s⁻¹.

B2: mAb 1E6 (human) (antibody, V domains shown)
VH: EVQLVQSGAEVKKPGSSVKVSCKASGGTVIDYPITWVRQAPGQGLEWVGGFVPLFRTSNYGQKFQGRVTITADKSTSTASMELNSLTSEDTAIYYCARGDTAMGPFDYWGQGTLVTVSS
VL: SYVLTQPPSLSVAPGKTATLTCGGNNIAGKTVHWYQQRPGQAPVLVISYDSDRPSGIPERFSGSNSANTATLTISRVEAGDEADYYCQVWDRNSDHWVFGGGTKLTVL
notes: source: Expi293, purified (MabSelect SuRe, SEC); copies: 2 + 2
On to B2, for which the Kd in the experiment with fHbp m002414 was found to be 1.09 nM; with fHbp m001929, 0.235 nM; with fHbp m002389, 0.818 nM; with fHbp m001932, 0.303 nM; with fHbp m002256, 0.23 nM; with fHbp m001691, 1.01 nM. The Kd with fHbp m001927 was 0.293 nM; with fHbp m002420, 0.285 nM. In addition, the koff in the experiment with fHbp m002414 came out at 0.000223 s⁻¹; with fHbp m001929, 9.11e-05 s⁻¹; with fHbp m002389 it was 0.000272 s⁻¹; with fHbp m002416 it was 0.000104 s⁻¹; with fHbp m001932 it was 0.000105 s⁻¹; with fHbp m002256 it was 0.000106 s⁻¹. The off-rate (koff) with fHbp m001691 was 0.000364 s⁻¹; with fHbp m001927, 0.000118 s⁻¹; with fHbp m002420, 0.000154 s⁻¹. Further, the kon in the experiment with fHbp m002414 was found to be 205200 ± 950 M⁻¹ s⁻¹; with fHbp m001929, 387500 ± 2190 M⁻¹ s⁻¹; with fHbp m002389, 332200 ± 1430 M⁻¹ s⁻¹; with fHbp m002416 it was 322000 ± 2420 M⁻¹ s⁻¹; with fHbp m001932, 347000 ± 1890 M⁻¹ s⁻¹; in the experiment with fHbp m002256 it was 460600 ± 4450 M⁻¹ s⁻¹. Moreover, the values for the kon with fHbp m001691, in the experiment with fHbp m001927 and in the experiment with fHbp m002420 were 361600 ± 1550 M⁻¹ s⁻¹, 402600 ± 1680 M⁻¹ s⁻¹ and 542300 ± 2290 M⁻¹ s⁻¹, respectively.

B3: chimeric antibody hJAR5 (antibody, V domains shown)
VH: QVQMQQPGAELVKPGASVKLSCKASGYTFISYWMHWVKQRPGRGLEWIGRIAPDTGIIYYNEKFKNKATLTVDTPSSTAYMQLNSLTSEDSAVYYCARYLKYDGSTYRFDYWGQGTTLTVSS
VL: DIVMTQAAPSVPVTPGESVSISCRSSKSLLHSNGNTYLFWFLQRPGQSPQLLIYRMSNLASGVPDRFSGSGSGTSFTLRISRVEAEDVGVYYCMQHLEYPYTFGGGTKLEIK
notes: also called hJAR5-2; humanized JAR5; source: Expi293, purified (MabSelect SuRe, SEC); copies: 2 + 2
As to B3, the dissociation constant (Kd) in the experiment with fHbp m001929 came out at 0.347 nM; with fHbp m002389, 0.772 nM; with fHbp m001932 it was 3.73 nM; with fHbp m001691, 0.838 nM; in the experiment with fHbp m001927, 0.824 nM; with fHbp m002420, 0.256 nM.

B4: mAb 4B3 (human) (antibody, V domains shown)
VH: QVQLVQSGGGLVKPGGSLRLSCAASGFPFSSYYMSWIRQAPGKGLEWVSDINNSGNVKEYADFVKGRLTISRDNVKNSMYLHMNSLRVEDTAVYYCARNRGRFDVWGQGTLVTVSA
VL: EIVMTQSPGTLSLSPGETATLSCRASQMISSPFLAWYQQRRGQAPRLLIYGASTRATDTPDRFRGSGSGTDFILTISRLEPEDFAVYYCQYYDDSPFTFGQGTKLEIK
notes: also called 4B3-2; source: Expi293, purified (MabSelect SuRe, SEC); copies: 2 + 2
Take B4: the Kd with fHbp m001929 is 2.63 nM; in the experiment with fHbp m002389, 4.01 nM and 3.22 nM; with fHbp m001932, 0.814 nM; with fHbp m001691, 3.1 nM; in the experiment with fHbp m001927, 3.64 nM; in the experiment with fHbp m002420 it was 2.01 nM. The koff with fHbp m001929 is 0.000635 s⁻¹; in the experiment with fHbp m002389, 0.000912 s⁻¹ and 0.00101 s⁻¹; in the experiment with fHbp m002416 it was 0.00113 s⁻¹; with fHbp m001932, 0.000321 s⁻¹; with fHbp m001691, 0.000731 s⁻¹; in the experiment with fHbp m001927, 0.000943 s⁻¹. Further, the koff in the experiment with fHbp m002420 came out at 0.000887 s⁻¹. In addition, the on-rate constant (kon) with fHbp m001929 is 242000 ± 2590 M⁻¹ s⁻¹; with fHbp m002389, 227000 M⁻¹ s⁻¹ and 315000 M⁻¹ s⁻¹; with fHbp m002416, 296100 ± 925 M⁻¹ s⁻¹; with fHbp m001932 it was 394600 ± 1740 M⁻¹ s⁻¹; with fHbp m001691, 235300 ± 1280 M⁻¹ s⁻¹; with fHbp m001927 it was 259300 ± 1550 M⁻¹ s⁻¹. The molecule also returned a kon in the experiment with fHbp m002420 of 441000 ± 4480 M⁻¹ s⁻¹.
